The values below are quoted from earlier work in PMC2964873.

The series deals with plectin-1 95-117 (Homo sapiens) (UniProt Q15149).

pKd: −log10 of the molar value.

Sequence of UniProt Q15149 (Q15149 95-117): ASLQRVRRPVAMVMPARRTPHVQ

For the substance Siah (from UniProt Q8IUQ4), the pKd is 7.54.

As a reminder, the pKd is the Kd on a negative log10 scale, so that one unit is a factor of ten.
